# Biological target: T4Lnano fusion protein (CBP - ER/K motif - T4L - linker - CaM)
# Test: crystal structure
substance,measurement,value
T4Lnano fusion protein (CBP - ER/K motif - T4L - linker - CaM),stoichiometry N,2

# Reference: article doi:10.1101/2020.09.29.318410
